Measurements reported in patent US20130156786A1 (Sanofi, published 2013).

Columns and labels:
[1] = target: T1, α2 integrin on HUVEC cells; assay: Scatchard plot (B/F against B (RLU)) of MesoScale electrochemiluminescence binding to HUVEC cells coated on plates; drawn table: SD 0.01291, CV(%) 6.0, 95%CI [0.1899; 0.2425]
T1 construct: The sheet names no target; also called HUVEC cells (promocell C12200, lot 6062203)
Procedure: (§1) To further assess the binding properties of the anti-α2 integrin mAb, a cell based assay with HUVEC cells (promocell C12200, lot 6062203) was performed. Cells were coated onto high binding plates (Meso Scale Discovery (MSD), L15XB-3) in PBS (10.000 cells/well) and incubated for 2 hrs at room temperature. Then the plates were emptied, washed twice with PBS and blocked with blocking solution (MSD, R93BA-4) for 90 min. After emptying and washing the plates again as described above, serial dilutions of anti α2-mAb were added and incubated with the cells for 1 h at room temperature. Following another washing step as above Read buffer T without surfactant (Meso scale Discovery, R92TD-2) was added. Electrochemilumenescence was read in a suitable device (Meso scale Discovery, Sector imager). Scatchard plot analysis was used to determine KD of the tested mAbs (see FIG. 1).

[2] = target: T1, α2 integrin on HUVEC cells; assay: MesoScale electrochemiluminescence binding to HUVEC cells coated on plates, serial dilutions of the mAb
Procedure: as §1

[3] = target: rabbit α2β1 integrin (whole blood) (rabbit, UniProt G1T180 31-1185; A0A5F9C3C4 21-798); assay: FACS on whole blood, PE-coupled goat anti-mouse IgG
Sequence of rabbit α2β1 integrin (whole blood) (alpha, as listed by the source limits assumed, chain 1 of 2): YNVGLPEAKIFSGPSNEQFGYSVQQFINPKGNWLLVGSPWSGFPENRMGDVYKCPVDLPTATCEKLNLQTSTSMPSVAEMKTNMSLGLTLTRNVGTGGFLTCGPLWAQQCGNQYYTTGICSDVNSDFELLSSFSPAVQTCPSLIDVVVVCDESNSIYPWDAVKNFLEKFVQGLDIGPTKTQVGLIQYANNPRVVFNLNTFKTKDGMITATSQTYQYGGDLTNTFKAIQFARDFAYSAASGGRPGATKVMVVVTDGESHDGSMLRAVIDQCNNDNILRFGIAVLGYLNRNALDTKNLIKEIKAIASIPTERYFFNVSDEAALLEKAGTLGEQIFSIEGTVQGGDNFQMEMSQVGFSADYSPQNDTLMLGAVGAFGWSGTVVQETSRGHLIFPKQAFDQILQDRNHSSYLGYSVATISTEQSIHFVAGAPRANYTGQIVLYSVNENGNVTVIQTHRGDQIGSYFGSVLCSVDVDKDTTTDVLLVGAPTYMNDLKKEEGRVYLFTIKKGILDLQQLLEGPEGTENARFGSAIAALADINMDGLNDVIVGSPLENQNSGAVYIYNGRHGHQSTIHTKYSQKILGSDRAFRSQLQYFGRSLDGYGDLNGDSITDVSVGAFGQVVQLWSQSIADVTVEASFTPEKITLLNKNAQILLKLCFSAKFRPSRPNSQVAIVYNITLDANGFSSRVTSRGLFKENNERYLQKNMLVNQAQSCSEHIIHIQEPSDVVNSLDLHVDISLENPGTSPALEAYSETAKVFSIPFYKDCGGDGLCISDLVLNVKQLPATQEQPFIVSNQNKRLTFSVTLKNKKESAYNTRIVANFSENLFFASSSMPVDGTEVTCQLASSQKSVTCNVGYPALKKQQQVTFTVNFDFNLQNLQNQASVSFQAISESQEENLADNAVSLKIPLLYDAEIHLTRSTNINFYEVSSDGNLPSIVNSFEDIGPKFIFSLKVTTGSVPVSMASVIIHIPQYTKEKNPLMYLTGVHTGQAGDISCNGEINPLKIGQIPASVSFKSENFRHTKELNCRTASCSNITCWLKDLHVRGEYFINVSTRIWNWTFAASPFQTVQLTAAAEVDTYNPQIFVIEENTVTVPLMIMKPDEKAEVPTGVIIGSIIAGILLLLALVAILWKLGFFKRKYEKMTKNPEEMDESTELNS
Sequence of rabbit α2β1 integrin (whole blood) (beta, as listed by the source limits assumed, chain 2 of 2): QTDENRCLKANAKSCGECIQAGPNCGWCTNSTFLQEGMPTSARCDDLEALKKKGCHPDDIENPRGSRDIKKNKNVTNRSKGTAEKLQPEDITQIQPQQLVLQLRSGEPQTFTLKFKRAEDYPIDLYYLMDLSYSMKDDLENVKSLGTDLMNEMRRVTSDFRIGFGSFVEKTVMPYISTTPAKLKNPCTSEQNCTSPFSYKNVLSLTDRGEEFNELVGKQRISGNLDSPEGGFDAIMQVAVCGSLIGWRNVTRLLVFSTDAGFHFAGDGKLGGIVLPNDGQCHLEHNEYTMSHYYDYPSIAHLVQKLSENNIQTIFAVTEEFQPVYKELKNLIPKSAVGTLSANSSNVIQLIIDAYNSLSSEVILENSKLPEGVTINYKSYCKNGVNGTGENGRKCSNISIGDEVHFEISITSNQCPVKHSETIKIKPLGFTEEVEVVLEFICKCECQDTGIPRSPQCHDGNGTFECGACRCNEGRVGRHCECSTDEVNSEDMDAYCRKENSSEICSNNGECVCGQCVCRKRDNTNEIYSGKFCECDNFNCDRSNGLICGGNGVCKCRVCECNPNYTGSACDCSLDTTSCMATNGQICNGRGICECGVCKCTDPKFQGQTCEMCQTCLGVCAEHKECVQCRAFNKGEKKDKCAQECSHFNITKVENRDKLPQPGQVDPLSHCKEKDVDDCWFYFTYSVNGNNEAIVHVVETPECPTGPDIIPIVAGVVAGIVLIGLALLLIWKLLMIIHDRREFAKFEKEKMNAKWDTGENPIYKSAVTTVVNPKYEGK

[4] = target: dog α2β1 integrin (whole blood) (dog); assay: as above
Sequence of dog α2β1 integrin (whole blood) (dog) (alpha, as listed by the source limits assumed, chain 1 of 2): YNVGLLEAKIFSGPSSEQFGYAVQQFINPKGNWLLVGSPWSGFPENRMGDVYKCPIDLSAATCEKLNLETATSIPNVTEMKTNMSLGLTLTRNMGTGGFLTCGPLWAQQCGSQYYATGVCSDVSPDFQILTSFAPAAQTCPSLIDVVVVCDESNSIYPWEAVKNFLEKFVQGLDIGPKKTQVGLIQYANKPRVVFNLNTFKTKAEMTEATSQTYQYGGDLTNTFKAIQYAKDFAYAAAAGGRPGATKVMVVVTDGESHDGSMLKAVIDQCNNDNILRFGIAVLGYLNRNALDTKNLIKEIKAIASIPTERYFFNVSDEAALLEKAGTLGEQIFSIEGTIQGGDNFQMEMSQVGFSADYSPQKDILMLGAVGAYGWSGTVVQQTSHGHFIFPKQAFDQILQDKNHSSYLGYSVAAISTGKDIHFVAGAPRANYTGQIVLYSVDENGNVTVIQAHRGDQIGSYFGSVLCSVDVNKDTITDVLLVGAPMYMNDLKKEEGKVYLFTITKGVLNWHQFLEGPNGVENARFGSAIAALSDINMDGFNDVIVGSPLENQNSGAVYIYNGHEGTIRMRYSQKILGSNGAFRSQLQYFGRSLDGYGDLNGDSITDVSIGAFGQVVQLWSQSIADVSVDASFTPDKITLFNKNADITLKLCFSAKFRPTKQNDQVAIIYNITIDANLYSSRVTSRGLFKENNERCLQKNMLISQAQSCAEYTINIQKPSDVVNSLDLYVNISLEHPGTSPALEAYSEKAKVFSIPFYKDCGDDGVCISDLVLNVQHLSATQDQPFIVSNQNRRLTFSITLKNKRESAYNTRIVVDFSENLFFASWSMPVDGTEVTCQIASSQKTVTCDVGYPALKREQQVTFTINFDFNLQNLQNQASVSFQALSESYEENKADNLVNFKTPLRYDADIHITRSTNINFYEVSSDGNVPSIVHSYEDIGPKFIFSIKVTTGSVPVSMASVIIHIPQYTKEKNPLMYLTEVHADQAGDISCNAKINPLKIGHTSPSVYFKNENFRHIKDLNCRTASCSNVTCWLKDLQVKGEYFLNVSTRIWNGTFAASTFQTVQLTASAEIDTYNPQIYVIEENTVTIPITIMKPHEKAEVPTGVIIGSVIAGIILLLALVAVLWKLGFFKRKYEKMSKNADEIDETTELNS
Sequence of dog α2β1 integrin (whole blood) (dog) (beta, as listed by the source limits assumed, chain 2 of 2): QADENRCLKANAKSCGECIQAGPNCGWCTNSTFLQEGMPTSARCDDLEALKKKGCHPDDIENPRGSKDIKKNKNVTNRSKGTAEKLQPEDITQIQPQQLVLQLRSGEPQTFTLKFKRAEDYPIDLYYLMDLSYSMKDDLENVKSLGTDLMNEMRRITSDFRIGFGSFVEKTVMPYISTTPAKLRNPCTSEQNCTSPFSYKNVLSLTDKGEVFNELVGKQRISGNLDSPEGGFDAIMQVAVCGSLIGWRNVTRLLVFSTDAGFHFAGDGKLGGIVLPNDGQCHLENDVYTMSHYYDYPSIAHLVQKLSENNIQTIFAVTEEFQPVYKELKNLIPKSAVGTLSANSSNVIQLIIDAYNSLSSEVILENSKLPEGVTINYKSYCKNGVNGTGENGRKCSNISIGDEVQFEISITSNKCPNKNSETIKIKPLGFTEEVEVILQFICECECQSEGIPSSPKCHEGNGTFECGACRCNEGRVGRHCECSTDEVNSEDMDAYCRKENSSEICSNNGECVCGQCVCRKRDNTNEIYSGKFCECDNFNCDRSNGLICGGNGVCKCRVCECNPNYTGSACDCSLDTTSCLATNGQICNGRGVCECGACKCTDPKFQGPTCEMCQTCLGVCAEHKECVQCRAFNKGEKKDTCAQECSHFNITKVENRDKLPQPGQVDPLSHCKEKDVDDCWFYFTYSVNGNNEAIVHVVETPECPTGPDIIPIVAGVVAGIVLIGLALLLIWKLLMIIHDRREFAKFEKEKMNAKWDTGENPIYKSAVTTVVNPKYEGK

[5] = target: T2, rat α2β1 integrin (whole blood) (rat, UniProt A0A0G2K470 27-1178; P49134 21-798); assay: as above
T2 construct: whole, on cells

[6] = target: T3, mouse α2β1 integrin (whole blood) (mouse, UniProt Q62469 27-1178; P09055 21-798); assay: as above
T3 construct: whole, on cells

T1 sequence (alpha, as listed by the source limits assumed): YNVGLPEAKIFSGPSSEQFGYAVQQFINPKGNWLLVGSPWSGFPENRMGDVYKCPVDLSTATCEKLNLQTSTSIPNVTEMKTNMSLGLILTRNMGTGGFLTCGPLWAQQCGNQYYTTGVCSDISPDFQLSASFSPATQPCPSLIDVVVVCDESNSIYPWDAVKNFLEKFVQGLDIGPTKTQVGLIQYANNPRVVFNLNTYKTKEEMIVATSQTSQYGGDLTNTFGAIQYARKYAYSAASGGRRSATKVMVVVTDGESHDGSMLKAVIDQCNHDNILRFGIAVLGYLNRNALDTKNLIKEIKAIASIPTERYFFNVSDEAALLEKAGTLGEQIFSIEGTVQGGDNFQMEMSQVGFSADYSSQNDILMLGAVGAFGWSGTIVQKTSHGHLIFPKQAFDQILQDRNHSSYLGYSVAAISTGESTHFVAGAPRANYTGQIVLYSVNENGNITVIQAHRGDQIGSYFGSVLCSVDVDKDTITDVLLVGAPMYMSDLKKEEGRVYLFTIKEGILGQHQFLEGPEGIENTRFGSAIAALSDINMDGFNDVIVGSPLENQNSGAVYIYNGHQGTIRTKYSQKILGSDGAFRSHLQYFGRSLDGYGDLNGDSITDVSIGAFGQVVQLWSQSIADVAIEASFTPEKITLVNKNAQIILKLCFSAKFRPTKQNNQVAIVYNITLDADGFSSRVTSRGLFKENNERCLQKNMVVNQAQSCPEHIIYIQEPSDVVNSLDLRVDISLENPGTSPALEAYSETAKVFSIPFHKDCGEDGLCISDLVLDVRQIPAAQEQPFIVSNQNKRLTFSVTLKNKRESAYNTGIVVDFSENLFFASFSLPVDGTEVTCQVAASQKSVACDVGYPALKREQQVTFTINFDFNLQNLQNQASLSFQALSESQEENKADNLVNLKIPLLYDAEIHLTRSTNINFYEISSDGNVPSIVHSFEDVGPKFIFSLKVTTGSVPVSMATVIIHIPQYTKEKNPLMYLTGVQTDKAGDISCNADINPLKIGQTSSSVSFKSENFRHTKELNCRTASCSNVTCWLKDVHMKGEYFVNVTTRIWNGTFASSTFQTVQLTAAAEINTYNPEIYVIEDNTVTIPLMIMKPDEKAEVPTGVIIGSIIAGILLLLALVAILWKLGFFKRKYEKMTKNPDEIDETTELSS

Kd [1]: 0.215 nM
EC50 (read off the curve) [2]: ~0.2 nM
binding result [3]: no binding
binding result [4]: no binding
binding result [5]: no binding
binding result [6]: no binding
B1: anti-α2 integrin mAb purified from hybridoma supernatant (murine, mCk, mIgG2a) (antibody)
heavy: QVQLHQPGAELVKPGAPVKLSCKASGYTFTSYWMNWVKQRPGRGLEWIGRIDPSDSETHYNQKFKDKATLTVDKSSSTAYIQLSSLTSEDSAVYYCAKVGRGYFDYWGQGTTLTVSSAKTTAPSVYPLAPVCGDTTGSSVTLGCLVKGYFPEPVTLTWNSGSLSSGVHTFPAVLQSDLYTLSSSVTVTSSTWPSQSITCNVAHPASSTKVDKKIEPRGPTIKPCPPCKCPAPNLLGGPSVFIFPPKIKDVLMISLSPIVTCVVVDVSEDDPDVQISWFVNNVEVHTAQTQTHREDYNSTLRVVSALPIQHQDWMSGKEFKCKVNNKDLPAPIERTISKPKGSVRAPQVYVLPPPEEEMTKKQVTLTCMVTDFMPEDIYVEWTNNGKTELNYKNTEPVLDSDGSYFMYSKLRVEKKNWVERNSYSCSVVHEGLHNHHTTKSFSRTPGK
light: NIVLTQSPASLAVSLGQRATISCRASESVESYGNSFIYWYQQKPGQAPKLLIYLASNLASGVPARFSGSGSRTDFTLTIDPVEADDAATYYCQQNNEDPYTFGGGTKLEIKRADAAPTVSIFPPSSEQLTSGGASVVCFLNNFYPKDINVKWKIDGSERQNGVLNSWTDQDSKDSTYSMSSTLTLTKDEYERHNSYTCEATHKTSTSPIVKSFNRNEC
notes: also called α2-integrin mAb from hybridoma; α2 mAb from hybridoma supernatant
